Assays:
[1] = target: mutant Huntingtin exon 1 fragment with Q71, unlabelled (Q71); test: FRET or BRET
FRET or BRET = target: the molecule itself; test: FRET or BRET

Chain of mutant Huntingtin exon 1 fragment with Q71, unlabelled (Q71) (P42858 whole entry, change not shown, the tested form may be a part): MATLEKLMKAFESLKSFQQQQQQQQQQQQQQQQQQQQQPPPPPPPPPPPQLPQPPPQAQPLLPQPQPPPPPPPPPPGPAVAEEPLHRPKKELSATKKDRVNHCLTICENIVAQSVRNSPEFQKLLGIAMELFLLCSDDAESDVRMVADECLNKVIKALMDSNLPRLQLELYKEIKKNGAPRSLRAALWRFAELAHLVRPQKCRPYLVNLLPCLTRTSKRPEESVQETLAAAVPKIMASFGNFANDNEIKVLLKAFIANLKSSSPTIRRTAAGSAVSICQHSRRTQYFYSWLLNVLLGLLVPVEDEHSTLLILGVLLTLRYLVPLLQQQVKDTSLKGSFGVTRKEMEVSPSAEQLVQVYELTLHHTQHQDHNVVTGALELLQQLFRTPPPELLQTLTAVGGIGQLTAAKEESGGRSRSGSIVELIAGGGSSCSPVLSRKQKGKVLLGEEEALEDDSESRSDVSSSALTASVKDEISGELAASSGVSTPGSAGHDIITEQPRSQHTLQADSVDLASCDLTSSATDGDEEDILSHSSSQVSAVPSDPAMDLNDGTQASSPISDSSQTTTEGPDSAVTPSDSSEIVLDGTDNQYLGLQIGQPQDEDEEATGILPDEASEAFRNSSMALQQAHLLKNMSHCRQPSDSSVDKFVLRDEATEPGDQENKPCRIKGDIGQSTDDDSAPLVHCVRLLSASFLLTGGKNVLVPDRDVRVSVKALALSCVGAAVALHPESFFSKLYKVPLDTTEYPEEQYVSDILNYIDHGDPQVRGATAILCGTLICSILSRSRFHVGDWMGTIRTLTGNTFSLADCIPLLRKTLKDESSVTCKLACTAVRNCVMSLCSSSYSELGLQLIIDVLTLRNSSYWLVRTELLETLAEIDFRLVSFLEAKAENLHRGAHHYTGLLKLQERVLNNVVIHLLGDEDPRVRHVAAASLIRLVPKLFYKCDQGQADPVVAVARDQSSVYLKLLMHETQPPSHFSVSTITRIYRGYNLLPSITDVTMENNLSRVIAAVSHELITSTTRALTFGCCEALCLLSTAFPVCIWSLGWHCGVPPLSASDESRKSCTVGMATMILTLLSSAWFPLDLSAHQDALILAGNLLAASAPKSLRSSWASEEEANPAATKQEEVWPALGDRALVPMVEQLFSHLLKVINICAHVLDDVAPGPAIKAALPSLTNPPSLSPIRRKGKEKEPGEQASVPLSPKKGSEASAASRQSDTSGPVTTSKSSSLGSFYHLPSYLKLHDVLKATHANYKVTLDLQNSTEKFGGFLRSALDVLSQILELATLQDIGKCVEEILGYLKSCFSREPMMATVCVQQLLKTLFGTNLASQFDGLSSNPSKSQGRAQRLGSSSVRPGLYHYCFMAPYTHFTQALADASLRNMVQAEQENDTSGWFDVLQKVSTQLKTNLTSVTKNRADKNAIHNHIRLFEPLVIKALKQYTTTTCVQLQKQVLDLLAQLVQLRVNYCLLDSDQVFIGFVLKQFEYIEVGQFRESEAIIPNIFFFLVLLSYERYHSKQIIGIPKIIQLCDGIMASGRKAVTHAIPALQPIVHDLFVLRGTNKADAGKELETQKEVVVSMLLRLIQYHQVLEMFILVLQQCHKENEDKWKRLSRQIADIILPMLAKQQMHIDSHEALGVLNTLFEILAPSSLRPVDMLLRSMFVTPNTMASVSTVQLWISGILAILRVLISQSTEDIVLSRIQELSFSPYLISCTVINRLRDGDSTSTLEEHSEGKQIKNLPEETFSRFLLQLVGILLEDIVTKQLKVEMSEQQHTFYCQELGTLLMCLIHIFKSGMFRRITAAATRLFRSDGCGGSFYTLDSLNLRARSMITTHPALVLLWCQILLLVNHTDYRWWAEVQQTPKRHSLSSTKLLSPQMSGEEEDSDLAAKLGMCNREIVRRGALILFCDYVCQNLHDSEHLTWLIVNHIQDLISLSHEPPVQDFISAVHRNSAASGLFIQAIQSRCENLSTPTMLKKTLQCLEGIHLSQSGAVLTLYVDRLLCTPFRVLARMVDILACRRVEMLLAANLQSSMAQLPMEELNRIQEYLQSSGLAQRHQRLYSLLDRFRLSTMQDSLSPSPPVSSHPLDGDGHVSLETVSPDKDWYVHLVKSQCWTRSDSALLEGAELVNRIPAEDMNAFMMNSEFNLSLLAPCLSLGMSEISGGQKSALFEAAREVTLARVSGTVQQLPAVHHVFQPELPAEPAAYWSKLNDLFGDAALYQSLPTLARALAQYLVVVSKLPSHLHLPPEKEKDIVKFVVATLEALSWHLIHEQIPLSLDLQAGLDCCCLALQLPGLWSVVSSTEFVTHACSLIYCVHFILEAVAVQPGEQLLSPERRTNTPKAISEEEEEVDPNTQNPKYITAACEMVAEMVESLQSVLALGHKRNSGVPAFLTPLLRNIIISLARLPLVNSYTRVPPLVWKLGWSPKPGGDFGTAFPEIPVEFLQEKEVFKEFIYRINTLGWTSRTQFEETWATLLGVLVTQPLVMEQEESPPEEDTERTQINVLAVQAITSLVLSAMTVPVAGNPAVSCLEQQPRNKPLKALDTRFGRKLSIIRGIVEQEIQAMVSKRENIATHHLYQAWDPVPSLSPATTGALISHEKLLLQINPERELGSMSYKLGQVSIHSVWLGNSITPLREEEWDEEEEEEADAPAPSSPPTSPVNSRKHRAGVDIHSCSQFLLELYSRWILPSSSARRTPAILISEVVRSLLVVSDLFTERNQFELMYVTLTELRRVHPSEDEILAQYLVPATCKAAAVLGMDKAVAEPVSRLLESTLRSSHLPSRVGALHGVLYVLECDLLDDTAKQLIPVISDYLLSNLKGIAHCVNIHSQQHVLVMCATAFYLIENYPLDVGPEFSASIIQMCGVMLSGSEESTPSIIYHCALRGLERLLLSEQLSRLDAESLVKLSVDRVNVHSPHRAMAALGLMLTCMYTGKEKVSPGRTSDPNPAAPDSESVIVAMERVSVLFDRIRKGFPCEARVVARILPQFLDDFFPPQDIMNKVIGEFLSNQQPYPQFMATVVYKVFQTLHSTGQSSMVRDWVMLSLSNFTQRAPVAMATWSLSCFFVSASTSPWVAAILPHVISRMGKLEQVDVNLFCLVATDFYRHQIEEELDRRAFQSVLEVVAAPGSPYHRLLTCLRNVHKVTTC

Molecule	FRET/donor ratio in aggregates with Q71 [1]	FRET/donor ratio in foci (FRET or BRET)
DNAJB6b fused to mVenus-mCherry at its N-terminus (VC-DNAJB6) (from UniProt O75190-2 1-241) (natural protein)	0.6	–
FUS R521C fused to mVenus-mCherry at its N-terminus (VC-FUSR521C) (natural protein) MASNDYTQQATQSYGAYPTQPGQGYSQQSSQPYGQQSYSGYSQSTDTSGYGQSSYSSYGQSQNTGYGTQSTPQGYGSTGGYGSSQSSQSSYGQQSSYPGYGQQPAPSSTSGSYGSSSQSSSYGQPQSGSYSQQPSYGGQQQSYGQQQSYNPPQGYGQQNQYNSSSGGGGGGGGGGNYGQDQSSMSSGGGSGGGYGNQDQSGGGGSGGYGQQDRGGRGRGGSGGGGGGGGGGYNRSSGGYEPRGRGGGRGGRGGMGGSDRGGFNKFGGPRDQGSRHDSEQDNSDNNTIFVQGLGENVTIESVADYFKQIGIIKTNKKTGQPMINLYTDRETGKLKGEATVSFDDPPSAKAAIDWFDGKEFSGNPIKVSFATRRADFNRGGGNGRGGRGRGGPMGRGGYGGGGSGGGGRGGFPSGGGGGGGQQRAGDWKCPNPTCENMNFSWRNECNQCKAPKPDGPGGGPGGSHMGGNYGDDRRGGRGGYDRGGYRGRGGDRGGFRGGRGGGDRGGFGPGKMDSRGEHRQDCRERPY	–	~0.66

— article doi:10.1101/2021.02.25.432866 (bioRxiv, 2021)
